This passage reports Km, kcat and kcat/Km results from article PMC8154254, “On the Track of Long-Range Electron Transfer in B-Type Dye-Decolorizing Peroxidases: Identification of a Tyrosyl Radical by Computational Prediction and Electron Paramagnetic Resonance Spectroscopy” (Biochemistry, 2021).

The data set deals with CCn1c(=NN=c2sc3cc(S(=O)(=O)O)ccc3n2CC)sc2cc(S(=O)(=O)O)ccc21. Description: purified protein. The following applies: 40 μM H2O2, 100 nM enzyme, 50 mM phosphate-citrate pH 5.0, room temperature.

By Km is commonly meant the concentration of substrate that gives half-maximal velocity. As usually defined, the kcat is the number of substrate molecules converted per active site and unit of time at saturation. A word on the kcat/Km: it is the turnover number divided by the Michaelis constant. As to “KpDyP (B-type Klebsiella pneumoniae dye-decolorizing peroxidase) (Klebsiella pneumoniae; W18F)”, the Km turned out to be 54 ± 8 µM, the kcat came out at 4.7 s⁻¹ and the kcat/Km was 86000 M⁻¹ s⁻¹.

Regarding “KpDyP (B-type Klebsiella pneumoniae dye-decolorizing peroxidase) (Klebsiella pneumoniae; W18F/Y92F)”, the Km is 84 ± 8 µM, the kcat was 6.5 s⁻¹ and the kcat/Km worked out at 77000 M⁻¹ s⁻¹.

Take “KpDyP (B-type Klebsiella pneumoniae dye-decolorizing peroxidase) (Klebsiella pneumoniae; Y237F)”: the Km was determined as 36 ± 7 µM, the turnover number (kcat) amounted to 4.6 s⁻¹ and the kcat/Km came to 125000 M⁻¹ s⁻¹.

Regarding “KpDyP (B-type Klebsiella pneumoniae dye-decolorizing peroxidase) (Klebsiella pneumoniae; Y247F)”, the Km was 270 ± 16 µM, the kcat worked out at 8.7 s⁻¹ and the kcat/Km came out at 33000 M⁻¹ s⁻¹.

With “KpDyP (B-type Klebsiella pneumoniae dye-decolorizing peroxidase) (Klebsiella pneumoniae; Y247F/Y92F)”, the Km was found to be 345 ± 73 µM, the kcat is 12.8 s⁻¹ and the kcat/Km was 37000 M⁻¹ s⁻¹.
